Measured values: the DeepSol protein solubility set

Assay: soluble on expression in E. coli; label from the status in PepcDB or PDB records

Row | Sequence | soluble on expression in E. coli
1 | MGSDKIHHHHHHMVTEIELKYSLLDSNEQTKPEKIKTTISQLLSEHDVTFVHQEKQLSNHYFDTADLTLRKNRIALRTRGTKCFDETKRFEQTIKTSGTIIAGLHQRPEYNVDIGDAKPIVSLFPDIIFQPNIDINLLQQQIVELFSTHFTRHTWLVSFEDAQIEIAFDCGEVACQNYVKKPRIYEIELEFVSGDSQALLGLTKLLFSQLALRPGQLTKAARGYALYHESLTLASHVENKPPNNSAIVEQIELSMINLPKKIPLHNALTHGIEFSLNQLQLCVDSYVEVPSFNMLSKVSEQLILLRQGFWLFDELLSPDEKALRTELSYFIRTIHWVENARYIQLLINKQSSYQKENLINQELITKLQLRQSRYPRELQVLELLHSERFNNLQVDLLSLLLKRNSDETLKIDNSSSLVEFATKHLTNSTKALSDELVKLQKPQDSTSIELYLTAHSLLIRALLTTSWFSCLFAEPESDIVKRFNMPLLDIKQGIIELQSLSLLLQQLKHLPKKENKLTQWLTNKSENLITALDQSRAKALTMKPYWP | not soluble
2 | LWALGNDSVTAKSLTISNFTLTERKTRYELCFLLDAKNSNTVNEPLSELKNCYGKDVSNVFRTITADNGSEFSRLSEMLQGLGIEAYFTHPYSSWERGTNERHNGLIRRFIPKGKAIKDFSEETIKRIQQWLNSLPRRILGYKTPEECFNEEIHNLVNKNISAIA | not soluble
3 | MVNEYKRIVLLRGLECINKHYFSLFKSLLARDLNLERDNQEQYTTIQIANMMEEKFPADSGLGKLIEFCEEVPALRKRAEILKKERSEGETSLEKNGQEAGPATPTSTTSHMLASERGETSATQEETSTAQAGTSTAQAGTSTAQAGTSTA | soluble
4 | MGSDKIHHHHHHVIEVIRQRVLPHYGLEGNAAKVSPLGNGHINDTFLVTWDEGSMVLQRLNTSVFQAPWTLVENAELISRHLGEKEGKDYELKVVSPKTTAEGDLGIDLGEAGFWRAIRYLKHSNSIDVVGSEAQAEQAARAFGHFARALCDFDATRIGDVIPKFHFLPGRLAALEQAAADNKAGRLDTCREWVDFALCQRGLLDELAALEPKLPLRVCHNDTKINNMLFDKRDDSAMAIIDLDTCMKGHLMYDFGDMVRTFTSPEAEDSTALDKVRVRPEIFAAICRGYLAELGDVLEAAERESLWLGARIMCLMIGVRFLTDYLNGDLYFHVHREGHNLDRAANQFTLYQSLLTQADRLKPCIF | not soluble
5 | MGGSHHHHHHGMASMTGGQQMGRTLYDDDDKDRWGSRKIVVVGGVAGGASVAARLRRLSEEDEIIMVERGEYISFANCGLPYYIGGVITERQKLLVQTVERMSKRFNLDIRVLSEVVKINKEEKTITIKNVTTNETYNEAYDVLILSPGAKPIVPSIPGIEEAKALFTLRNVPDTDRIKAYIDEKKPRHATVIGGGFIGVEMVENLRERGIEVTLVEMANQVMPPIDYEMAAYVHEHMKNHDVELVFEDGVDALEENGAVVRLKSGSVIQTDMLILAIGVQPESSLAKGAGLALGVRGTIKVNEKFQTSDPHIYAIGDAIEVKDFVTETETMIPLAWPANRQGRMLADIIHGHTDSLYKGTLGTSVAKVFDLTVATTGLNEKILKRLNIPYEVVHVQANSHAGYYPNATPVLIKLIFNKDSGKIYGAQTLGRDGVDKRMDVIATAIKANLTVLDLPDLELSYAPPYSSAKDPVNMVGYAASNIVDGFVDTVQWHEIDRIVENGGYLIDVREPNELKQGMIKGSINIPLDELRDRLEEVPVDKDIYITCQLGMRGYVAARMLMEKGYKVKNVDGGFKLYGTVLPERIVY | soluble
6 | IRHEITSRTSVSVLVNRCNWFCTSPKCSGLTVMGCLCVAMSVAKKDKPTMSVTALINWARPLPPGQQQQPMTPTSPGNMLQPMATPSNLPTVDCSLDIQWLNLEGGFMSPMSPPEMKPDTAMLDGLRDDSTPPPAFKNYPPNHPLSGSKHLCSICGDRASGKHYGVYSCEGCKGFFKRTVRKDLTYACREERNCIIDKRQRNRCQYCRYQKCLACGMKREAVQEERQRAARGTEDAHPSSSVQVQELSIERLLEMESLVADPSEEFQFLRVGPDSNVPPKFRAPVSSLCQIGNKQIAALVVWARDIPHFSQLEMEDQILLIKGSWNELLLFAIAWRSMEFLTEERDGVDGTGNRTTSPPQLMCLMPGMTLHRNSALQAGVGQIFDRVLSELSLKMRTLRVDQAEYVALKAIILLNPDVKGLKNRQEVEVLREKMFLCLDEYCRRSRSSEEGRFAALLLRLPALRSISLKSFEHLFFFHLVADTSIAGYIRDALRNHAPPIDTNMM | soluble
7 | MNFGKSSWRTYEQGIQREWLLTNGIGGFASSTIIGSNTRRYHGLLVAALKPPVSRHLILSKIDECVTVDNESFNLFSYEVPGFIMHGYHHLERFEYDMLPKYIYRVKDVYVEKEICMVYGENTVVVVYHVINGTGRTNLRLTPLVNFRDYHFNSGRAYMSFERKFEKDVLTVRPSCYDIDIKLYSTDGKFTELDDTWFYNMDYAVERERGLASTEDHYIPGYYDIEIKPLEEKYITFVATVEKNVNHRDGLKIIEKEKKRLKKLASKAGYKDELAKKLVLAADKFIVHRESTNAKTVIAGYPWFTDWGRDTMISLAGLTLATRRFEDAKEILYTFSKYVKDGLIPNMFPDAGHEPPYNTVDAALWYFEAVNKYVNYTHDYKFIKENIYSGLKQIIEYYSKGTHFNIKADEDYLISAGDEHTQLTWMDAKVGDWVVTPRHGKAVEINALWYNALKIMSQLSKHFKEDAGLYDEMAEKVKKSFEEKFWNEEKKCLYDCLTPNYKDDKVRPNQILAVSLSYPVIEGEKAKSVVDIVFKELYTAYGLRSLSPKEKEYVGVYMGDQYRRDGAYHQGTVWTWPLGHFITAYLRVNNYSPEARKMALRFIEPFKDHLQDACLGSVSEIFDGNEPLIPRGCFAQAWSVAEILRAYVEDVMQLVQLKH | soluble
8 | MSELIKHSSNFLAAISPDNDCSITATNDFEAMMSWLNGYKKKPINTSRNYAREVKRYLIWLSCQGLTLAQVKIEDVYEYFNLLERPTTEWIIPDKKTDKIYPTQLIKYGGLSNRSINYTHTVLGLFYSFLQDAGYLTKNPINLVKKALEHHHHHH | not soluble
9 | GTPLSSDEKIRVLVWNIFKQQRAEWQSVLKNFGKDAHLVLLQEAQTTPELVRFATSNYLAADQVPALVLPQHPSGVMTLASAHPIYCCPLREREPILRLPKSALVTVYPLPDARLLMVVNIHAVNFSLGVDVYSKQLLPIGDQIAHHSGPVIMAGDFNAWSRPRMNALYRFAREMSLREVRFSDDQRRRAFGRPLDFVFYRGLSVHDASVLVTRASDHNPLLVEFSPGKP | not soluble
10 | MGHHHHHHSHMQYMYFKAEPYAADEGSGEGHKWLMVHVDKRITLAAFKQHLEPFVGVLSSHFKVFRVYASNQEFESVRLNETLSSFSDDNKITIRLGRALKKGEYRVKVYQLLVNEQEPCKFLLDAVFAKGMTVRQSKGELIPQLREQCGLELSIDRFRLRKKTWKNPGTVFLDYHIYEEDINISSNWEVFLEVLDGVEKMKSMSQLAVLSRRWKPSEMKLDPFQEVVLESSSVDELREKLSEISGIPLDDIEFAKGRGTFPCDISVLDIHQDLDWNPKVSTLNVWPLYICDDGGVIFYRDKTEELMELTDEQRNELMKKESSRLQKTGHRVTYSPRKEKALKIYLDGAPNKDLTQD | not soluble
11 | MAHHHHHHMQDDKINSKDDISSSSSCEENDENKNILNPPNRTKMSKGERRARKMLVKLGLKAIPNVHKVIIKKSQKMVFAVSNVEVYKVEGTDSYVIFGDAKTDDITNSINNFIPENLPKDVDVPVEPEINFEAADKEEQKVKDLDDENVGDVSMDDVELIMSQTKCSRDMAISALRKNNNDFVQSIMELSG | soluble
12 | MGSDKIHHHHHHMAISERDIEHIFERLRSGVVPERGLEAFAVGIDKQRTEIHRQFQLAANSEGVFKFLRGGYGCGKTFMSRLAILDAQAQGFATSFVVVSDNDLHFYKFDDVYRKVVQELGTSSCPRGALSDIIDRWIARVEDALIAGGADENSDEFDTLVQQRIEEELASLTGGKAPEDMARVLRAIFTFKQKGEIAEASALLSWLAGSENVAATAKKAAGIKGDIASRDALDYLHGILEIVKAAGYKGLVIVIDEVETVLRMRHDSRGKSLNGIRQICDAADRYRGLLWIYTGTPEFFDTKRGVAGLEPLHDRIQFLTLAGFANPRQPQLELKPFDARRLKEVALKLREIFPTANRTGIVNKVTFEFIERLVAKVTAGFKGDVGVVPRQFLRQFVNILDLASENDEFDPMSAEGFEPTDLNEVELLIREGRTYFDEDPADIQGYAAVEF | not soluble
13 | GSVYNTKKVGKRLNIQLKKGTEGLGFSITSRDVTIGGSAPIYVKNILPRGAAIQDGRLKAGDRLIEVNGVDLAGKSQEEVVSLLRSTKMEGTVSLLVFRQEEAFHPREMNA | soluble
14 | MAHHHHHHMSKAVQQIFEDYNRSRAQFTQSIYDMCLKAHHMEVIISTDIIMLLRPLILDKVPIVQQNATQILGKMASHSEEVALTILQNDVLPHLVYCLKHENKNYRKNCANTLRCLASHNAKLANLVAEEENCIDNLVDSLDEYDVRLKEACLNALCAIGKHDVDLSKQLMAKGIIPLVILSLQEKDTNLVRSSLNILTELSKHTNEIAKEVVDNNALPHLIKFLDHTDVQVKRYACNCLAQIAKHKEELTELIIESDVFPRVIYLLNDSDDVVKKNCANCLKEMSKHNEDICKIIARAGSLPFLCECIEQSSKGAVKLPAILCIGFIASFSESLSLNIILSNAIPILKKCLIGEEEDYIKASCVWAVGNIGKHSSSHAKKLSDENLLIILVNLYNANDSSDDLKKKVKLSFKGVIQKVTDLESLEPVFLKATAKLAKYCICQFAKIIPKSPAHKKAFIKSGCLKRLQVGRQSSCAIFPRCRVTVLPPYRPSAHPCTPSPLHRK | not soluble
15 | MATSKILLYYAFTPLSDPKAVQLWQRELCESLNLRGRILISTHGINGTVGGDIDDCKAYIKKTREYPGFNRMQFKWSEGGAEDFPKLSVKVRDEIVAFGAPDELKVDENGVVGGGVHLKPQQVNELVEARGDEVVFFDGRNAMEAQIGKFKDAVVPDVETTHDFIAEIESGKYDDLKDKPVVTYCTGGIRCEILSSLMINRGFKEVYQIDGGIVRYGEQFGNKGLWEGSLYVFDKRMHMEFGEDYKEVGHCIHCDTPTNKFEHCLNEDDCRELVLMCPDCFANVETRHCKRERCAAIAADFAEQGIDPLVTS | not soluble
16 | MQVELIIKNLKVYNSYFKKFIKSDVLINEGKFLHIGKGYEDRLWSENIIDGEDKYIIPGLIDIHMHIESSMTIPREFSKAAIKHGVTTVVADPHEIANVFGVRGIEEFIKFKGNLDIFYGILEHHHHHH | not soluble
17 | MGSDKIHHHHHHMELSSPSKKTTTSPINIPGGNRDNLIIGPHSHSFKTDPFSSNNSSLLSKISTNPSLESPFSSKSLLDCSPVQAVKKSLESEAKTHSLDEETNEQTDVKILNIADFPTDELILMISALLNRIITANDETTDVSQQVSDETEDELLTPILAFYGKNVPEIAVVQYLERIQKYCPTTNDIFLSLLVYFDRISKNYGHSSERNGCAKQLFVMDSGNIHRLLITGVTICTKFLSDFFYSNSRYAKVGGISLQELNHLELQFLILCDFKLLVSVEEMQKYANLLYKFWNDQ | not soluble
18 | GPLGSGGLFFNALKNCKENFTVLQTIRQQQSTLNGSWVALLQTRNTLNRAGIRYMMDQNNIGSGSTVAELMESASISLKQAEKNWADYEALPRDPRQSTAAAAEIKRNYDIYHNALAELIQLLGAGKINEFFDQPTQGYQDGFEKQYVAYMEQNDRLHDIAVSDNNASYSHHHHHH | soluble
19 | APKNGTVQEKKFFSKELNEEMTLLVYLPSNYSPLYKYHVIIAQDGHDYFRLGRIGRQVEELLSKREIDRSIIIGVPYKDVKERRNTYHPEGSKFSAYKRFIAHELVPFADDEYPTYQIGYGRTLIGDSLGATVSLMTALDYPNMFGNIIMQSPYVDKHVLEAVKQSDDIKHLSIYHQIGTKETDVHTTDGNILDFTEPNRELKQLLEKKLSDYDFEPFDGDHKWTYWQPLITPALKKML | not soluble
